In article PMC3566586 (Molecular Cell, 2010):
Like-named read-outs stand apart in the source and are kept apart here. Values belong to the binder of their own block, whether it stands above or below them.

Assays:
[1] = target: T1, recombinant Flag-tagged Yox1p(151–274) (S. cerevisiae, UniProt P34161 151-274); assay: pull-down
T1 sequence (looked up): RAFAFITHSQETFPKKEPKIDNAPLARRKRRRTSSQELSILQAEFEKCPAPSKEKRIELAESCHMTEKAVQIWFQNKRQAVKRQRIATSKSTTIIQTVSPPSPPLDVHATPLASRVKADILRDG

[2] = target: Mcm1p(1-98);Yox1p full length (Saccharomyces cerevisiae;Saccharomyces …, UniProt P11746;P34161 1-98;1-385, |); assay: immobilized template pull-down
[3] = target: T2, Mcm1p(1-98);Fkh2p(1-458) (Saccharomyces cerevisiae;Saccharomyces …, UniProt P11746;P41813 1-98;1-458, |); assay: EMSA
[4] = target: T3, Mcm1p(1-98) (Saccharomyces cerevisiae, UniProt P11746 1-98); assay: EMSA
[5] = target: T2, Mcm1p(1-98);Fkh2p(1-458); assay: EMSA; remark: listed apart in the source
[6] = target: T3, Mcm1p(1-98); assay: EMSA; remark: listed apart in the source
[7] = target: Mcm1p(1-98);Yox1p(E196H) (Saccharomyces cerevisiae;Saccharomyces …, UniProt P11746;P34161 1-98;151-274, |E196H); assay: EMSA
[8] = target: Mcm1p(1-98);Yox1p(151-274) recombinant (Saccharomyces cerevisiae;Saccharomyces …, UniProt P11746;P34161 1-98;151-274, |); assay: EMSA
[9] = target: T4, Fkh2p(325-458) (Saccharomyces cerevisiae, UniProt P41813 325-458); assay: EMSA
T4 sequence: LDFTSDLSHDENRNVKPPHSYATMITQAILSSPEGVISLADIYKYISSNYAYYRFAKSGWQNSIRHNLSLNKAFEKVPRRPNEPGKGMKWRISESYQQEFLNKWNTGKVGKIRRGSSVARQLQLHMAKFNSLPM

[10] = target: Mcm1p(1-98);Yox1p(151-274) (Saccharomyces cerevisiae;Saccharomyces …, UniProt P11746;P34161 1-98;151-274, |); assay: EMSA
[11] = target: Mcm1p(1-96);Fkh2p full length (Saccharomyces cerevisiae;Saccharomyces …, UniProt P11746;P41813 1-96;1-862, |); assay: EMSA
[12] = target: Mcm1p(1-96);Yox1p(151-274) recombinant;Fkh2p(325-458) (Saccharomyces cerevisiae;Saccharomyces …, UniProt P11746;P34161;P41813 1-96;151-274;325-458, ||); assay: EMSA
[13] = target: T5, Yox1p F163 mutant (Saccharomyces cerevisiae, UniProt P34161 151-274, F163A); assay: EMSA
T5 sequence: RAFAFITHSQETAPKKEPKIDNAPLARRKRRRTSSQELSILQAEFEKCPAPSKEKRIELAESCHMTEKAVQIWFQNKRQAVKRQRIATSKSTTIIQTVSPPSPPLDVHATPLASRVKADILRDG

[14] = target: T6, Yox1p(F153A) (Saccharomyces cerevisiae, UniProt P34161 151-274, F153A); assay: EMSA
T6 sequence: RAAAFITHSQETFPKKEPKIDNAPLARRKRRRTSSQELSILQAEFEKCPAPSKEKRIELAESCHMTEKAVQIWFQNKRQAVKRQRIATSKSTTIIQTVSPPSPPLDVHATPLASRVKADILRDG

[15] = target: T7, Yox1p(F155A) (Saccharomyces cerevisiae, UniProt P34161 151-274, F155A); assay: EMSA
T7 sequence: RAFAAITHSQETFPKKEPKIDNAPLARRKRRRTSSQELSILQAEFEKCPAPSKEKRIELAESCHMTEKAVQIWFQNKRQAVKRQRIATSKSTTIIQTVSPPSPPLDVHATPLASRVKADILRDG

[16] = target: T8, Yox1p(176-274) recombinant (Saccharomyces cerevisiae, UniProt P34161 176-274); assay: EMSA
T8 sequence: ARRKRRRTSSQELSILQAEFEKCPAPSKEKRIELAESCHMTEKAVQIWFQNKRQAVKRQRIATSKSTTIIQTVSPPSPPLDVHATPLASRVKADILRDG

[17] = target: T9, Yox1p(151-274) recombinant (Saccharomyces cerevisiae, UniProt P34161 151-274); assay: EMSA
T9 sequence: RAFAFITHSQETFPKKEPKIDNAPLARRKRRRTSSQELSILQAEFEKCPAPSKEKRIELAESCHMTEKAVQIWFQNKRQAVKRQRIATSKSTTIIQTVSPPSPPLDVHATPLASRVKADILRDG

[18] = target: Mcm1p(1-98);Yox1p(N226Q) recombinant (Saccharomyces cerevisiae;Saccharomyces …, UniProt P11746;P34161 1-98;151-274, |N226Q); assay: competition
[19] = target: Mcm1p(1-96);Yox1p(151-274) recombinant (Saccharomyces cerevisiae;Saccharomyces …, UniProt P11746;P34161 1-96;151-274, |); assay: competition

Chain of Mcm1p(1-96);Fkh2p full length (P41813 whole entry, one chain of several): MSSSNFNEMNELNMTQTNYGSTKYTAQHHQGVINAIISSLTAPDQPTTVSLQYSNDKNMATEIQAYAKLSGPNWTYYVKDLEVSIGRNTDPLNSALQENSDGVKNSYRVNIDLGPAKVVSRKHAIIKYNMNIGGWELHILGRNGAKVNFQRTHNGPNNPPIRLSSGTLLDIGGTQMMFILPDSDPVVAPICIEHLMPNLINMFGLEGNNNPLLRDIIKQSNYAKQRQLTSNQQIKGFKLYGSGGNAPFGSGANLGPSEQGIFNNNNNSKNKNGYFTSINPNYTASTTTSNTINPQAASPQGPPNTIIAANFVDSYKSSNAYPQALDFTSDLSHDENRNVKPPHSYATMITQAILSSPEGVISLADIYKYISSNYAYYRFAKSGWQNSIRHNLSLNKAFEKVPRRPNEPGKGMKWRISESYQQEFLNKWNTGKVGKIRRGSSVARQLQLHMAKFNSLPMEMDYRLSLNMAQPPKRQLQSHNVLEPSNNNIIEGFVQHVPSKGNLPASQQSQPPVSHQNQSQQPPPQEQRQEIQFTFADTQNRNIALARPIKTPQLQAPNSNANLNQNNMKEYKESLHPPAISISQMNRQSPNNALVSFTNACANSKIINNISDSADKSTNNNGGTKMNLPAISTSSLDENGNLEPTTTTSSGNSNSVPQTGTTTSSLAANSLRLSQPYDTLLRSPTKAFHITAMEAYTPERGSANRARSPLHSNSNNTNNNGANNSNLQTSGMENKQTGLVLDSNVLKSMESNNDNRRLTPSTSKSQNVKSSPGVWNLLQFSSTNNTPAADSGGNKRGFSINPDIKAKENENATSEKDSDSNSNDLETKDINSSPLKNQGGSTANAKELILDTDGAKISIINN
Chain of Mcm1p(1-98);Yox1p full length (P34161 whole entry, one chain of several): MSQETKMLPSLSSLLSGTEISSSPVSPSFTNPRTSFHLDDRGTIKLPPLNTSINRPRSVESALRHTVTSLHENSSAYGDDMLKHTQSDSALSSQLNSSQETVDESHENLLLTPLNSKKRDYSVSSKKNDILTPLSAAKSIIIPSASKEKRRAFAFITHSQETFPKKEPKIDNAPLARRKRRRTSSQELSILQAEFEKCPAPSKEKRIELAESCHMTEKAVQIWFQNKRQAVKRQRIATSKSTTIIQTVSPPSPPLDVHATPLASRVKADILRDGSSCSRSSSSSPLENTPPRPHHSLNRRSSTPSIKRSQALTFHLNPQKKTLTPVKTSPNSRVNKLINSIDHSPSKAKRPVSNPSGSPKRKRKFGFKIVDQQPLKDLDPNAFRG

binding result [1]: binds
B1: MBP-Mcm1p(1–96) (domain or fragment, S. cerevisiae, UniProt P11746 1-96, looked up)
chain: MSDIEEGTPTNNGQQKERRKIEIKFIENKTRRHVTFSKRKHGIMKKAFELSVLTGTQVLLLVVSETGLVYTFSTPKFEPIVTQQEGRNLIQACLNA

B2: SPO12 WT biotin (dsDNA)
DNA 1: TCGAGGTTAATATCTTTTCCTAATTTGGAAATATGTAAACAGGGC
DNA 2: TCGAGCCCTGTTTACATATTTCCAAATTAGGAAAAGATATTAACC
binding result [2]: binds

B3: SPO12 mut (Yox1p site) (dsDNA)
DNA 1: TCGAGGTTAGGATCTTTTCCTAATTTGGAAATATGTAAACAGGGC
DNA 2: TCGAGCCCTGTTTACATATTTCCAAATTAGGAAAAGATCCTAACC
binding result [3]: binds | binding result [4]: binds

B4: SPO12 WT (dsDNA)
DNA 1: TCGAGGTTAATATCTTTTCCTAATTTGGAAATATGTAAACAGGGC
DNA 2: TCGAGCCCTGTTTACATATTTCCAAATTAGGAAAAGATATTAACC
binding result [5]: binds | binding result [6]: binds | binding result [7]: binds | binding result [8]: binds | binding result [9]: binds | binding result [10]: binds | binding result [11]: binds | binding result [12]: binds | binding result [13]: binds | binding result [14]: binds | binding result [15]: binds | binding result [16]: binds | binding result [17]: binds | binding result [18]: no binding | binding result [19]: binds
